The target of the assay is AliC (residues 24-655) (Streptococcus pneumoniae). The assay can be described thus: crystal structure.

We go through one substance from publication doi:10.1101/2023.12.05.570199.

A word on the stoichiometry N: it is the number of molecules, sites or subunits per partner or assembly. As to “AliC (residues 24-655) (natural protein)”, the stoichiometry N came to 2.
